These results are taken from patent US20190248900A1 (Y BIOLOGICS, published 2019).

Residue numbers refer to the chain shown, from its start. Where only a bound is given, the exact number is not on record here.

B1: PD1-45D6(A/5B2) (antibody, V domains shown)
VH: QVQLVESGGGVVQPGRSLRLSCAASGFTFSFYAMHWVRQAPGKGLEWVAVISYDGNDKYYADSVKGRFTISRDNSKNTLYLQMNSLRAEDTAVYYCVPTTFEYWGQGTLVTVSS
VL: DIVMTQTPLSPPVTPGEPASISCRSSQSLLDSDDGNTYLDWYLQKPGQSPQLLIYTLSHRASGVPDRFSGSGSGTDFTLEISRVEAEDVGVYYCMQRRDFPFTFGQGTKLDIK
notes: scFv-phage in the screening ELISA; whole IgG in the other assays; also called 45D6-5B2; PD1 45D6 5B2
B2: mPDL2-mFC (Fc fusion, mouse (prefix m on the sheet), UniProt Q9WUL5 20-221, looked up)
ligand fused to Fc: LFTVTAPKEVYTVDVGSSVSLECDFDRRECTELEGIRASLQKVENDTSLQSERATLLEEQLPLGKALFHIPSVQVRDSGQYRCLVICGAAWDYKYLTVKVKASYMRIDTRILEVPGTGEVQLTCQARGYPLAEVSWQNVSVPANTSHIRTPEGLYQVTSVLRLKPQPSRNFSCMFWNAHMKELTSAIIDPLSRMEPKVPRTW
notes: mFC fusion
B3: PD1-62E1 (antibody, V domains shown)
VH: QVQLVESGGDLVKPGRSLRLSCTGSGFTFGDHPLTWVRQIPGKGLEWVGFIRSKAYGETTEYAASVKGRFTISRDDSKSIAYLQMNSLRAEDTAVYYCASVSYCSGGSCYQGTFDYWGQGTLVTVSS
VL: DIQMTQSPAILSLSPGERATLSCRASQSVTSDVAWYQHIRGQAPRLLIYDASNRASGIPARFSGGGSGTEFTLTISSLEPEDFAVYYCQQYNNWPLTFGGGTKVEIK
B4: PD1-49A2(A/1H8) (antibody, V domains shown)
VH: B1 VH with S30K, F31T, N56Q, D57H, V97T, P98T, E102D, Y103S
VL: DIVMTQTPLSLPVTPGEPASISCRSSQSLLDRDGGHTYVDWYLQKPGQSPRLLIYTLSHRALGVPDRFSGSGSGTDFTLKISRVEADDVGLYYCMQRIEFPFTFGQGTKVEIK
notes: scFv-phage in the screening ELISA; whole IgG in the other assays; also called 49A2-1H8; PD1 49A2 1H8
B5: PD1-45D6(A/3H7) (antibody, V domains shown)
VH: B1 VH with F31S, A40V, T108S, L109Q
VL: B1 VL with P11L, D66G, D76E, T78N, E80R, V91I, R98V, D99E, D111E
notes: scFv-phage in the screening ELISA; whole IgG in the other assays; also called 45D6-3H7; PD1 45D6 3H7
B6: PD1-49A2(A/2A6) (antibody, V domains shown)
VH: B1 VH with S30K, F31Y, A49T, N56Q, D57Y, V97T, P98T, E102D, Y103S
VL: DIVMTQTPLSLPVTPGEAASISCRSSQSLLDSEDGNTYLDWYLQRPGQSPQLLIYTLSHRASGVPGRFSGSGSGTEFNLRISRVEAEDVGIYYCMQRVEFPFTFGQGTKVEIK
notes: scFv-phage in the screening ELISA; whole IgG in the other assays; also called 49A2-2A6; PD1 49A2 2A6
B7: PD1-45D6(A/5B5) (antibody, V domains shown)
VH: B1 VH with S30R, F31T
VL: B6 VL with T14M, R45K, G66D, E76D, N78T, R80K, E87D
notes: scFv-phage in the screening ELISA; whole IgG in the other assays; also called 45D6-5B5; PD1 45D6 5B5
B8: PD1-49A2(A/1B2) (antibody, V domains shown)
VH: B1 VH with S30L, F31R, N56Q, V97T, P98T, E102D, Y103S, Q106R
VL: B6 VL with A18P, E33D, R45K, G66D, V110L
notes: scFv-phage in the screening ELISA; whole IgG in the other assays; also called 49A2-1B2; PD1 49A2 1B2
B9: PD1-45D6(A/3D2) (antibody, V domains shown)
VH: B1 VH with F31S, A40V, T108S, L109Q
VL: B6 VL with R45K, G66D, E76D, N78T, R80K
notes: scFv-phage in the screening ELISA; whole IgG in the other assays; also called 45D6-3D2; PD1 45D6 3D2

For one assay, the target named is T1, ITGA6-Fc.
T1 construct: Fc fusion
T1 sequence (P23229 whole entry, species assumed, looked up): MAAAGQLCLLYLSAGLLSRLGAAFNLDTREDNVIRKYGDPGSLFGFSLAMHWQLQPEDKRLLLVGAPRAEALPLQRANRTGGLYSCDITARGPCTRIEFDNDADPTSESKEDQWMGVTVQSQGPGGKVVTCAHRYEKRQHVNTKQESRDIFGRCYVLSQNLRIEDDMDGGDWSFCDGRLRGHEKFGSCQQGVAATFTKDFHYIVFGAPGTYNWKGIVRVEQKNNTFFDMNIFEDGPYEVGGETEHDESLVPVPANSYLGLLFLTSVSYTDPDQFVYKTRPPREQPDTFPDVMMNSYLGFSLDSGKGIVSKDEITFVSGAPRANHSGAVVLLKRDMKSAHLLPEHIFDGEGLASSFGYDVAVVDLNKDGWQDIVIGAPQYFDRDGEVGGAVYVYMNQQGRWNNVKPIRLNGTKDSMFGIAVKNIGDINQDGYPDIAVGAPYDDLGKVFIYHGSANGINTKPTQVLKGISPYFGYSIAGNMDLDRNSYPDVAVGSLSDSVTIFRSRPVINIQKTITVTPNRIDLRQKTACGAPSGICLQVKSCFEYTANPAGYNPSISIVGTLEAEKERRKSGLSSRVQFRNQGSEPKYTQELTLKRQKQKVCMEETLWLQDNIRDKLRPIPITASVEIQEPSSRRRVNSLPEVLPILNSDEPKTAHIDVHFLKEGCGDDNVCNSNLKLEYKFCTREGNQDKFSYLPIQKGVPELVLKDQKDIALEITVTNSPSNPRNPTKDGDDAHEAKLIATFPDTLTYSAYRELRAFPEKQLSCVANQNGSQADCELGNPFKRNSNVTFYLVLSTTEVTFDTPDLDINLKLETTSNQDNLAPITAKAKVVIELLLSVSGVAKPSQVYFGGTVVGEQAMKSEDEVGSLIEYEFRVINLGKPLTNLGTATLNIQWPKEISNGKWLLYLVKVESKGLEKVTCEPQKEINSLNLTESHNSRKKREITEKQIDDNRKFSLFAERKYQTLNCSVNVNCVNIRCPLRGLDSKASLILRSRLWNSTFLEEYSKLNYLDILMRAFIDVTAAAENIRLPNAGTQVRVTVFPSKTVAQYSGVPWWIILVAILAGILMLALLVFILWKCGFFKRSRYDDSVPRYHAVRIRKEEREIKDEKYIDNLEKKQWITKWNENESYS
As to the kind of experiment: ELISA, 1 ug/ml.
B1 displayed an OD490 of 0.124.

As to B2, the OD490 was 0.3.

The target in another assay is T2, M7.
T2 construct: also called PD1 mutant M7
As to the kind of experiment: ELISA, 1 ug/ml.
Molecule B1 came in with an OD490 of 0.238.

The next assay has as its target T3, M11.
T3 construct: also called PD1 mutant M11
Briefly: ELISA, 1 ug/ml.
The molecule B1 displayed an OD490 of 0.446.

B2 registered an OD490 of 1.7.

The next assay addresses T4, human PD-1 (NM_005018.2) over-expressed on cells (human, UniProt Q15116 25-288). As to the kind of experiment: cell-based or functional assay.
In the case of B3, the “EC50 [nM], PD1/PD-L1 blockade bioassay” value came out at 2.73 nM.

In the case of B4, the “EC50 [nM], PD1/PD-L1 blockade bioassay” value stood at 1.21 nM.

As to B5, the “EC50 [nM], PD1/PD-L1 blockade bioassay” value turned out to be 1.98 nM.

For the molecule B6, the “EC50 [nM], PD1/PD-L1 blockade bioassay” value was 1.51 nM.

Regarding B1, the “EC50 [nM], PD1/PD-L1 blockade bioassay” value turned out to be 1.48 nM.

Turning to B7, the “EC50 [nM], PD1/PD-L1 blockade bioassay” value turned out to be 1.68 nM.

For B8, the “EC50 [nM], PD1/PD-L1 blockade bioassay” value was 1.3 nM.

As to B9, the “EC50 [nM], PD1/PD-L1 blockade bioassay” value is 2.16 nM.

The target in a further assay is T5, PD1-hFc (human, UniProt Q15116 25-170).
T5 construct: extracellular domain; also called PD1-hFc protein; Human PD-1-Fc (S1420, Y-Biologics)
As to the kind of experiment: competition ELISA: PD1-Fc coated, PDL1-His as binder, antibody as competitor. On the procedure:
(§1) Human PD-1-Fc (S1420, Y-Biologics) or PD-L2-Fc (#10292-H02H, Sino) was added to wells of a 96-well immuno microplate (#439454, Thermo) and then washed three times with PBS containing 0.05% tween-20 (#P9416, Sigma-Aldrich), followed by allowing to stand in a cleaning solution containing 4% skim milk (#232120, Becton, Dickinson and Company) at room temperature for 1 hour to block non-specific binding. […] After the resulting product was subjected to the same washing method as above, the anti-Biotin-His antibody (#MA1-21315-BTIN, Thermo) diluted to 1:2000 was added to the well of the microplate, allowed to react at room temperature for 1 hour, streptavidin poly-HRP antibody (#21140, Pierce) diluted to 1:5000 was added to the well of microplate, reacted at room temperature for 1 hour and then washed in the same manner. 100 ul of a TMB substrate solution (#T0440, Sigma-Aldrich) was added to the reaction product, light was shielded, and the reaction product was allowed to stand at room temperature for 3 minutes, 50 μL of 2.5 M sulfuric acid (#S1478, Samchun) was added to stop the reaction, and absorbance was measured at 450 nm using a spectrophotometer (*GM3000, Glomax® Discover System Promega).
B3 had a concentration for half-maximal inhibition (IC50) of 2.89 nM.

For B1, the IC50 came out at 3.09 nM.

Another assay addresses T6, rat PD1 protein (rat, UniProt D3ZIN8 25-169).
T6 construct: also called rat PD-1 proteins
T6 sequence: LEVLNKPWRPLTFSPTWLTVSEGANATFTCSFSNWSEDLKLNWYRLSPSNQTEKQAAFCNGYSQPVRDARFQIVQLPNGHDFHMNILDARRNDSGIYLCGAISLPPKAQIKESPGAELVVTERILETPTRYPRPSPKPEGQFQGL
Briefly: SPR ProteOn XPR36; format for rat PD1 not described.
In the case of B1, the affinity, expressed as Kd, was 4.59 nM; the koff is 0.000863 s⁻¹; the kon worked out at 188000 M⁻¹ s⁻¹.

Another assay has as its target T7, PD-1-His (S1352, Y-Biologics) (UniProt Q15116 25-170, limits assumed).
T7 construct: not shown: His tag
Briefly: competition ELISA: PD-L2-Fc coated, PD-1-His as binder, antibody as competitor. On the procedure: as §1
Molecule B3 registered a concentration for half-maximal inhibition (IC50) of 314 nM.

Take B1: the IC50 was found to be 75.4 nM.

In another assay the target is T5, PD1-hFc. Briefly: SPR ProteOn XPR36, PD1-hFc immobilised, antibody as analyte. On the procedure: A ProteOn XPR36 (BioRad) instrument was used. The GLC sensor chip (BioRad) was mounted on the instrument and washed with PBST buffer, and the carboxymethyldextran surface was activated with an EDC/sulfo-NHS mixed solution. PD1-hFc dissolved at a concentration of 5 ug/ml in a 10 mM sodium acetate buffer solution (pH 5.0) was injected and immobilized on the GLC sensor chip.
In order to deactivate the activated carboxyl groups that remain unreacted with the PD1 protein, 1 M ethanolamine was flowed and 10 mM glycine (pH 2.0) was injected in order to wash proteins that remain unbound to the sensor chip.
The equilibrium dissociation constant (KD) was calculated by plotting and fitting the sensogram data in the equilibrium state depending on concentration.
B4 returned an equilibrium dissociation constant (Kd) of 0.0124 nM, a koff of 2.74e-06 s⁻¹ and a kon of 220000 M⁻¹ s⁻¹.

Molecule B5 had a Kd of 0.0253 nM, a koff of 7.78e-06 s⁻¹ and a kon of 308000 M⁻¹ s⁻¹.

Turning to B6, the dissociation constant (Kd) turned out to be 0.0691 nM, the koff was found to be 2.14e-05 s⁻¹ and the kon stood at 310000 M⁻¹ s⁻¹.

B1: the Kd turned out to be 0.0582 nM, the off-rate constant (koff) is 1.93e-05 s⁻¹ and the kon is 332000 M⁻¹ s⁻¹.

For the molecule B7, the Kd was determined as 0.0477 nM, the koff turned out to be 1.41e-05 s⁻¹ and the kon was found to be 296000 M⁻¹ s⁻¹.

B8 came in with an equilibrium dissociation constant (Kd) of 0.166 nM, a koff of 6.39e-05 s⁻¹ and a kon of 385000 M⁻¹ s⁻¹.

As for B9, the Kd was ≤ 0.001 nM, the koff was ≤ 1e-07 s⁻¹ and the kon worked out at 181000 M⁻¹ s⁻¹.

A further assay addresses T4, human PD-1 (NM_005018.2) over-expressed …. As to the kind of experiment: cell-based or functional assay. The source holds these as a separate data set.
In turn, B4 had an EC50 of 1.45 nM.

For the molecule B5, the EC50 is 1.64 nM.

Regarding B6, a half-maximal response (EC50) required 1.67 nM.

In the case of B1, a half-maximal effect (EC50) was put at 1.66 nM.

B7 yielded an EC50 of 0.906 nM.

B8 returned an EC50 of 2.03 nM.

B9 registered an EC50 of 2 nM.

Another assay concerns the target T8, monkey PD1 protein (monkey).
T8 construct: also called monkey PD-1 proteins
As to the kind of experiment: SPR ProteOn XPR36; format for monkey PD1 not described.
B1: the kon is 208000 M⁻¹ s⁻¹.
